According to patent publication US20050118638A1:
Where two headings read alike, the source gives them in different places.

What was measured:
[1] = target: TSH receptor (detergent solubilised TSH receptor preparation) (UniProt P16473); experiment: 125I-TSHR immunoprecipitation; competitor TRAb of serum K3
[2] = target: TSH receptor (detergent solubilised TSH receptor preparation) (UniProt P16473); experiment: TSHR coated tubes after serum G31
[3] = target: TSH receptor (detergent solubilised TSH receptor preparation) (UniProt P16473); experiment: TSHR coated tubes after serum G51
[4] = target: TSH receptor (detergent solubilised TSH receptor preparation) (UniProt P16473); experiment: TSHR coated tubes after serum G41
[5] = target: TSH receptor (detergent solubilised TSH receptor preparation) (UniProt P16473); experiment: TSHR coated tubes after serum G24
[6] = target: TSH receptor (detergent solubilised TSH receptor preparation) (UniProt P16473); experiment: TSHR coated tubes after serum G52
[7] = target: TSH receptor (detergent solubilised TSH receptor preparation) (UniProt P16473); experiment: TSHR coated tubes after serum G44
[8] = target: TSH receptor (detergent solubilised TSH receptor preparation) (UniProt P16473); experiment: TSHR coated tubes after serum G43
[9] = target: TSH receptor (detergent solubilised TSH receptor preparation) (UniProt P16473); experiment: TSHR coated tubes after serum G40
[10] = target: TSH receptor (detergent solubilised TSH receptor preparation) (UniProt P16473); experiment: TSHR coated tubes after serum G48
[11] = target: TSH receptor (detergent solubilised TSH receptor preparation) (UniProt P16473); experiment: TSHR coated tubes after serum G45
[12] = target: TSH receptor (detergent solubilised TSH receptor preparation) (UniProt P16473); experiment: TSHR coated tubes after serum NSF 20
[13] = target: TSH receptor (detergent solubilised TSH receptor preparation) (UniProt P16473); experiment: TSHR coated tubes after serum NSF 26
[14] = target: TSH receptor (detergent solubilised TSH receptor preparation) (UniProt P16473); experiment: TSHR coated tubes after serum G46
[15] = target: TSH receptor (detergent solubilised TSH receptor preparation) (UniProt P16473); experiment: TSHR coated tubes after serum G25
[16] = target: TSH receptor (detergent solubilised TSH receptor preparation) (UniProt P16473); experiment: TSHR coated tubes after serum NSF 16
[17] = target: TSH receptor (detergent solubilised TSH receptor preparation) (UniProt P16473); experiment: TSHR coated tubes after serum NSF 4
[18] = target: TSH receptor (detergent solubilised TSH receptor preparation) (UniProt P16473); experiment: TSHR coated tubes after serum G26
[19] = target: TSH receptor (detergent solubilised TSH receptor preparation) (UniProt P16473); experiment: TSHR coated tubes after serum G27
[20] = target: TSH receptor (detergent solubilised TSH receptor preparation) (UniProt P16473); experiment: TSHR coated tubes after serum NSF 21
[21] = target: TSH receptor (detergent solubilised TSH receptor preparation) (UniProt P16473); experiment: TSHR coated tubes, healthy blood donor sera
[22] = target: TSH receptor (detergent solubilised TSH receptor preparation) (UniProt P16473); experiment: TSHR coated tubes after serum NSF 17
[23] = target: TSH receptor (detergent solubilised TSH receptor preparation) (UniProt P16473); experiment: TSHR coated tubes after serum G35
[24] = target: TSH receptor (detergent solubilised TSH receptor preparation) (UniProt P16473); experiment: TSHR coated tubes after serum G39
[25] = target: TSH receptor (detergent solubilised TSH receptor preparation) (UniProt P16473); experiment: TSHR coated tubes after serum G47
[26] = target: TSH receptor (detergent solubilised TSH receptor preparation) (UniProt P16473); experiment: TSHR coated tubes after serum NSF 10
[27] = target: TSH receptor (detergent solubilised TSH receptor preparation) (UniProt P16473); experiment: TSHR coated tubes after serum G28
[28] = target: TSH receptor (detergent solubilised TSH receptor preparation) (UniProt P16473); experiment: TSHR coated tubes after serum G38
[29] = target: TSH receptor (detergent solubilised TSH receptor preparation) (UniProt P16473); experiment: TSHR coated tubes after serum G29
[30] = target: TSH receptor (detergent solubilised TSH receptor preparation) (UniProt P16473); experiment: TSHR coated tubes after serum G50
[31] = target: TSH receptor (detergent solubilised TSH receptor preparation) (UniProt P16473); experiment: TSHR coated tubes after serum G49
[32] = target: TSH receptor (detergent solubilised TSH receptor preparation) (UniProt P16473); experiment: TSHR coated tubes after serum G36
[33] = target: TSH receptor (detergent solubilised TSH receptor preparation) (UniProt P16473); experiment: TSHR coated tubes after serum G34
[34] = target: TSH receptor (detergent solubilised TSH receptor preparation) (UniProt P16473); experiment: TSHR coated tubes, healthy blood donor sera; remark: listed apart in the source
[35] = target: TSH receptor (detergent solubilised TSH receptor preparation) (UniProt P16473); experiment: TSHR coated tubes after serum G37
[36] = target: TSH receptor (detergent solubilised TSH receptor preparation) (UniProt P16473); experiment: TSHR coated tubes after serum G32
[37] = target: TSH receptor (detergent solubilised TSH receptor preparation) (UniProt P16473); experiment: TSHR coated tubes after serum NSF 22
[38] = target: TSH receptor (detergent solubilised TSH receptor preparation) (UniProt P16473); experiment: TSHR coated tubes after serum G33
[39] = target: TSH receptor (detergent solubilised TSH receptor preparation) (UniProt P16473); experiment: TSHR coated tubes after serum NSF 18
[40] = target: TSH receptor (detergent solubilised TSH receptor preparation) (UniProt P16473); experiment: TSHR coated tubes after serum G23
[41] = target: TSH receptor (detergent solubilised TSH receptor preparation) (UniProt P16473); experiment: TSHR coated tubes after serum G30
[42] = target: TSH receptor (detergent solubilised TSH receptor preparation) (UniProt P16473); experiment: TSHR coated tubes after serum NSF 5

Chain of TSH (thyrotrophin, thyroid stimulating hormone) (ligand) (P01223 21-132): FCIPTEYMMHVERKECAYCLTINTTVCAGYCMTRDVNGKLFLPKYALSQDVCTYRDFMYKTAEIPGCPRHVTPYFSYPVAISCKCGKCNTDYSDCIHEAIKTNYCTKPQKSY
Chain of TSH receptor (detergent solubilised TSH receptor preparation) (P16473 21-764 limits assumed): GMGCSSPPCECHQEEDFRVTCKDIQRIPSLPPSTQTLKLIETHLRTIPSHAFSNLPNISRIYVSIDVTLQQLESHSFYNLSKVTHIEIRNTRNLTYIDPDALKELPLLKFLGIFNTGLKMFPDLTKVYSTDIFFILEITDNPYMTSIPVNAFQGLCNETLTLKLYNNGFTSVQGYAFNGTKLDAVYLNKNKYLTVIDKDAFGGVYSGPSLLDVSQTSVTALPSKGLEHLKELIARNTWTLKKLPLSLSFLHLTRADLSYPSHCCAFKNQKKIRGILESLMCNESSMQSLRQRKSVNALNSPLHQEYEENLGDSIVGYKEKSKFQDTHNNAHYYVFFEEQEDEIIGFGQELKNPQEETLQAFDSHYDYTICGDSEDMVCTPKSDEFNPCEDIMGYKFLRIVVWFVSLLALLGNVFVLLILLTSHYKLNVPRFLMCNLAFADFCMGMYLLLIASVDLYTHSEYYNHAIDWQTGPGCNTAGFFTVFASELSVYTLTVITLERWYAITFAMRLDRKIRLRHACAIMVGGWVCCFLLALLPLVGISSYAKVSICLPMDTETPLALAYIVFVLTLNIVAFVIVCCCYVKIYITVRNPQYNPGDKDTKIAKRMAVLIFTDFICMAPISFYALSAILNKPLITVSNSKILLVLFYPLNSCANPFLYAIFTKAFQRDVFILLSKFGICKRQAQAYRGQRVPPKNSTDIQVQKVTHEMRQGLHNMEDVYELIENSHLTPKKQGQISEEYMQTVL

## TSH (thyrotrophin, thyroid stimulating hormone) (ligand)
[1]
  % inhibition of TRAb binding: 55.4%
[2]
  % total counts bound (% total counts added): 4.3
[3]
  % total counts bound (% total counts added): 7.9
[4]
  % total counts bound (% total counts added): 10.8
[5]
  % total counts bound (% total counts added): 6.9
[6]
  % total counts bound (% total counts added): 7.4
[7]
  % total counts bound (% total counts added): 12.4
[8]
  % total counts bound (% total counts added): 4
[9]
  % total counts bound (% total counts added): 7.2
[10]
  % total counts bound (% total counts added): 4.8
[11]
  % total counts bound (% total counts added): 3.5
[12]
  % total counts bound (% total counts added): 12.3
[13]
  % total counts bound (% total counts added): 12.8
[14]
  % total counts bound (% total counts added): 2.7
[15]
  % total counts bound (% total counts added): 7.2
[16]
  % total counts bound (% total counts added): 12
[17]
  % total counts bound (% total counts added): 12.5
[18]
  % total counts bound (% total counts added): 2.6
[19]
  % total counts bound (% total counts added): 7.3
[20]
  % total counts bound (% total counts added): 12.3
[21]
  mean % total counts bound: 12.1%
[22]
  % total counts bound (% total counts added): 11.5
[23]
  % total counts bound (% total counts added): 4.3
[24]
  % total counts bound (% total counts added): 7.9
[25]
  % total counts bound (% total counts added): 4.3
[26]
  % total counts bound (% total counts added): 12.5
[27]
  % total counts bound (% total counts added): 3.8
[28]
  % total counts bound (% total counts added): 10
[29]
  % total counts bound (% total counts added): 8
[30]
  % total counts bound (% total counts added): 6.3
[31]
  % total counts bound (% total counts added): 6.1
[32]
  % total counts bound (% total counts added): 10.1
[33]
  % total counts bound (% total counts added): 7.5
[34]
  mean % total counts bound: 12.2%
[35]
  % total counts bound (% total counts added): 9.3
[36]
  % total counts bound (% total counts added): 7.5
[37]
  % total counts bound (% total counts added): 12.4
[38]
  % total counts bound (% total counts added): 6.1
[39]
  % total counts bound (% total counts added): 11.2
[40]
  % total counts bound (% total counts added): 8.9
[41]
  % total counts bound (% total counts added): 5.3
[42]
  % total counts bound (% total counts added): 12.3
